In the supplement of paper PMC11780869:

Tested on: Bacillus subtilis
Test: cleaved RNA product abundance (RNA/gDNA barcode ratio) relative to median wild-type variant (ratio to wild type); higher = more accumulation of the downstream cleavage product
In short: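 Sequencing of barcodes from gel-selected, reverse-transcribed cleaved RNA and from genomic DNA, with UMI collapsing, yielded a per-construct RNA:gDNA ratio. Scaled to the median construct with the unmutated site, this ratio is the cleaved product abundance. The barcoded reporters (truncated aprE or tetM mRNAs with mutagenized RNase Y cleavage-site windows) were integrated into the B. subtilis chromosome, and cultures grew in LB at 37°C from OD600 0.0003 to 0.3.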

[1] = experiment (reporter, strain, medium): exp 2b: truncated aprE reporter, strain BJT200, cleavage site: cggR-gapA (positions -7 to +36 mutated)
[2] = experiment (reporter, strain, medium): exp 4a: truncated aprE reporter, strain BJT201 with 2% xylose (RNase J1 expressed), cleavage site: cggR-gapA (positions -7 to +36 mutated)
[3] = experiment (reporter, strain, medium): exp 8a: truncated aprE reporter, strain BJT201 with 2% xylose (RNase J1 expressed), cleavage site: glnRA (positions -5 to +31 mutated)
[4] = experiment (reporter, strain, medium): exp 6: tetM reporter, strain 168, cleavage site: cggR-gapA (positions -7 to +36 mutated)

Sequence	cleaved RNA product abundance [1]	cleaved RNA product abundance [2]	cleaved RNA product abundance [3]	also measured
ACAGACGAAGGAGCCGCAAAGAAGTTATTAAGGTATGAATAATCCCACAATATAAATATCTCTCACTTATTTAAA	0.0792	0.0978	–	–
ACAGACGAAGGAGCCGCAAAGAAGTTATTAAGGGATCAATAATCCCTCAATATAAATAACTCTCACTTATTTAAA	–	0.687	–	–
ACAGACGAAGGAGCCGCAAATAAGTTATTAAGGGATGAATAATCCCTCCATATAAATATCTCTCACTTATTTAAA	0.274	0.333	–	–
ACAGACGAAGGAGCCGCAGAGAAGTTATTAATGGATGAATAATCCCTCAATATAAATATCTCTCACTTATTTAAA	–	0.184	–	–
ACAGACGAAGGAGCCGCAAAGAAGTTATTACGGGATGAATAATCCCTCGATATAAATATCTCTCACTTATTTAAA	–	0.259	–	–
CGACATGTCCCGCTTCTTTCATTAATCCGTTAGCAACTGTTTTGATATATACATTTATCTTTTAAGAGGAGGAAT	–	–	0.509	–
ACAGACGAAGGAGCCGCAAATAAGTTATTAAGGGATGAACAATCCCTCAATATAAATATCTCTCACTTATTTAAA	0.897	0.924	–	–
CGACATGTCCCGCTTCTTTCATTAATCCGTTAGCAACTGTTTGGCTATAAACATTTACCTTTTAAGAGGAGGAAT	–	–	0.327	–
ACAGACGAAGGAGCCGCAAAGAAGTTATTAAGAGATGAAAAATCCCTCAATATAAATATCTCTCACTTATTTAAA	0.119	0.18	–	–
ACAGACGAAGGAGCCGCAAAGAAGTTATTAAGCGATGAATAATCCCTCAATATAAATATCTCTCACTTATTTAAA	0.0916	0.116	–	cleaved RNA product abundance [4]: 0.132
ACAGACGAAGGAGCCGCAAAGAAGTTATTAAGGGATGAATAATCCTTCAATATAAATAACTCTCACTTATTTAAA	0.395	0.935	–	–
CGACATGTCCCGCTTCTTTCATTAATCCGTTAGCAACTGTTTTGCTAAATACATTTTCCTTTTAAGAGGAGGAAT	–	–	0.232	–
CGACATGTCCCGCTTCTTTCATTAGTCCGTTAGCAACTGTTTTGATATATACATTTACCTTTTAAGAGGAGGAAT	–	–	0.542	–
ACAGACGAAGGAGCCGCAAAGAAGTTATTATGGGATGAATAATCCCTAAATATAAATATCTCTCACTTATTTAAA	–	0.514	–	–
ACAGACGAAGGAGCCGCAAAGAGGTTATTAAGGGATGAATAATCCATCAATATAAATATCTCTCACTTATTTAAA	0.176	–	–	–
ACAGACGAAGGAGCCGCAAAGAACTTATTAAGGGATGAATAATCCCTCAAAATAAATATCTCTCACTTATTTAAA	–	0.208	–	–
CGACATGTCCCGCTTCTTTCATTAATCCGTTATCAACTGTGTTGCTATATACATTTACCTTTTAAGAGGAGGAAT	–	–	0.27	–
ACAGACGAAGGAGCCGCAAAGAAGTTATTAAGGGATGAATAATCGCTCAATATAAATACCTCTCACTTATTTAAA	0.0956	–	–	–
CGACATGTCCCGCTTCTTTCATTAATCCGTTAGCAACTGTTTGGCTATATAAATTTACCTTTTAAGAGGAGGAAT	–	–	0.518	–
ACAGACGAAGGAGCCGCAAAGAAGTTATTAAGGGATTAATAATCCCTCAATATAAATGTCTCTCACTTATTTAAA	–	0.707	–	–
ACAGACGAAGGAGCCGCACAGAAGTTATTAAGGGTTGAATAATCCCTCAATATAAATATCTCTCACTTATTTAAA	–	0.473	–	–
CGACATGTCCCGCTTCTTTCATTAATCCGTTATCAACTGTTTTGCTATATGCATTTACCTTTTAAGAGGAGGAAT	–	–	0.135	–
ACAGACGAAGGAGCCGCAAACAAGTTATTAAGGGATAAATAATCCCTCAATATAAATATCTCTCACTTATTTAAA	–	0.649	–	–
ACAGACGAAGGAGCCGCAAAGAAGTTATTAAGGGATGAATAATCCCTCGTTATAAATATCTCTCACTTATTTAAA	0.097	0.157	–	–
ACAGACGAAGGAGCCGCAAAGGAGTTATTAAGGGATGAATAATCCCTCAATATCAATATCTCTCACTTATTTAAA	–	0.134	–	–
ACAGACGAAGGAGCCGCAAAGGAGTTATTAAGGGATAAATAATCCCTCAATATAAATATCTCTCACTTATTTAAA	0.828	0.789	–	–
ACAGACGAAGGAGCCGCAAAGAAGTTATTCAGCGATGAATAATCCCTCAATATAAATATCTCTCACTTATTTAAA	–	0.0886	–	–

Sequence	cleaved RNA product abundance [1]	cleaved RNA product abundance [2]	cleaved RNA product abundance [3]	also measured
ACAGACGAAGGAGCCGCAACGAAGTTATTAAGGGATGAATAATCCCTCAATGTAAATATCTCTCACTTATTTAAA	–	0.11	–	–
ACAGACGAAGGAGCCGCAAAGAAGTTATTAAGGGTTGAATAATCCCTCAATATAAATTTCTCTCACTTATTTAAA	–	0.436	–	–
CGACATGTCCCGCTTCTTTCATTAATCCGTTAGAAACTGTTTTGCTATATACATATACCTTTTAAGAGGAGGAAT	–	–	0.244	–
CGACATGTCCCGCTTCTTTCATTAATCCGTTAGCAACTGTTTAGTTATATACATTTACCTTTTAAGAGGAGGAAT	–	–	0.327	–
ACAGACGAAGGAGCCGCACAGAAGTTATTAAGAGATGAATAATCCCTCAATATAAATTTCTCTCACTTATTTAAA	–	0.113	–	–
CGACATGTCCCGCTTCTTTCATTAATCCGTTAGCAACTGTTTTGTTATATATATTTACCTTTTAAGAGGAGGAAT	–	–	0.298	–
CGACATGTCCCGCTTCTTTCATTAATCCGATAGCAACTGTTTTGCTATTTACATTTACCTTTTAAGAGGAGGAAT	–	–	0.189	–
ACAGACGAAGGAGCCGCAAAGAAGTTATTAAGGGATGAATAATCCCTCAATATAATTACCTCTCACTTATTTAAA	–	0.435	–	–
CGACATGTCCCGCTTCTTTCATTAATCCTCTAGCAACTGTTTTGCTATATACATTTACCTTTTAAGAGGAGGAAT	–	–	0.492	–
CGACATGTCCCGCTTCTTTCATTAATGCGTTAGCAACTGTTTTGCTATATAGATTTACCCTTTAAGAGGAGGAAT	–	–	0.761	–
ACAGACGAAGGAGCCGCATAGAAGTTATTAAGGCATGAATAATCCCTCAATATAAATATCTCTCACTTATTTAAA	0.0988	0.13	–	–
CGACATGTCCCGCTTCTTTCATTAATCCGTTAGCAACTGTTATGCTATATACATTTAGCTTTTAAGAGGAGGAAT	–	–	0.711	–
CGACATGTCCCGCTTCTTTCATTAATCCGGTATCAACTGTTTTGCTATATACATTTACCTTTTAAGAGGAGGAAT	–	–	0.375	–
ACAGACGAAGGAGCCGAATAGAAGTTATTAAGGGATGAATAATCCCTCAATATAAATATCTCTCACTTATTTAAA	–	–	–	cleaved RNA product abundance [4]: 0.727
CGACATGTCCCGCTTCTTTCATTAATACGTTAGCAACTGTTTTGATATATACATTTACCTTTTAAGAGGAGGAAT	–	–	0.527	–
ACAGACGAAGGAGCCGCAAAGAACTTATTAAGGGAGGAATAATCCCTCAATATAAATATCTCTCACTTATTTAAA	–	0.315	–	–
ACAGACGAAGGAGCCGCAAAGAAGTTTTTAAGGGATGTATAATCCCTCAATATAAATATCTCTCACTTATTTAAA	0.285	0.331	–	–
ACAGACGAAGGAGCCGCAAACAAGTTATTAAGAGATGAATAATCCCTCAATATAAATATCTCTCACTTATTTAAA	0.0959	0.118	–	–
ACAGACGAAGGAGCCGCAAAGATGTTATTAAGGGATGAATAATCCCTCGATATAAATATCTCTCACTTATTTAAA	0.352	–	–	–
ACAGACGAAGGAGCCGCAAAGAAGTTATTAAGAGATGAATAATCCCTCAATAAAAATATCTCTCACTTATTTAAA	–	0.113	–	–
ACAGACGAAGGAGCCGCAAAGAAGTTATTAAGGGATGAGTAATCCTTCAATATAAATATCTCTCACTTATTTAAA	–	0.346	–	–
CGACATGTCCCGCTTCTTTCATTAATCCGTTAGCAACTGTTTTACTAAATACATTTACCTTTTAAGAGGAGGAAT	–	–	0.499	–
ACAGACGAAGGAGCCGCAAAGAAGTTATTAAGGGATGAATAATCCCACAATATAAATATTTCTCACTTATTTAAA	–	0.386	–	–
ACAGACGAAGGAGCCGCAAAGAAGTTATTAAAGGATGAATAATCCCTCTATATAAATATCTCTCACTTATTTAAA	0.132	0.18	–	–
CGACATGTCCCGCTTCTTTCATTATTCCTTTACCAACTTTTTTGCTATATATATATACCTTTTAAGAGGAGGAAT	–	–	0.182	–
ACAGACGAAGGAGCCGCAAAGAAGTTATTACGGGTTGAATAATCCCTCAATATAAATATCTCTCACTTATTTAAA	0.087	0.16	–	–
ACAGACGAAGGAGCCGCAAAGAAGTTATTAAGGGATGAATAATCCCTTAATATAAACATCTCTCACTTATTTAAA	0.304	0.216	–	–
